In patent US12084487B2, “Nanoparticles having molecules that bind or block PD-L1 and uses in treating cancer” (Emory University, priority 2016, dated 2024):

Target: T1, PD-L1 on tumor cell surfaces (mouse pancreatic cancer KC cells) (Mus musculus, UniProt Q9EP73)
T1 construct: endogenous in cells; host or cells: KC mouse pancreatic cancer cells (Pdx1-Cre; LSL-K-rasG12D derived)
Experiment: Competition-binding assay of FITC labeled PD-1 peptides with anti-mouse PD-L1 antibody on KC cells
Details: for fluorescence intensity on cells: FITC labeled peptide 2 μg/ml
Experimental: Two (2) μg of FITC labeled PD-1 peptides were mixed with 0, 5, 20 μg of anti-mouse PD-L1 antibody and then incubated with the KC cells for 2 hours. Unbound peptides and antibodies were washed off. Relative fluorescent intensities of KC cells were measured for each group.
Next, a competition-binding assay was performed to determine specificity of the PD-1 like peptides binding to PD-L1 on tumor cell surfaces. […] The peptides were then added to tissue culture plates with mouse pancreatic cancer KC cells.

T1 sequence (Q9EP73 19-290): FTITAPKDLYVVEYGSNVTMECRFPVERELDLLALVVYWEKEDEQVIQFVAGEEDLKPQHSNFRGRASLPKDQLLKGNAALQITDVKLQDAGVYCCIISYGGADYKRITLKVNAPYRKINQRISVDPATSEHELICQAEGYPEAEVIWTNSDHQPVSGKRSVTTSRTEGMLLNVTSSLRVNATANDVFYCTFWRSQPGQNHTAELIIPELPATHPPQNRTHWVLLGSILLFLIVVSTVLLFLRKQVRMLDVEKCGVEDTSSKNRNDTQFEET

Row | binding to cells with anti-PD-L1 antibody added (20 μg/ml anti-PD-L1 antibody) | fluorescence intensity on cells | Sequence
1 | reduced | High levels of fluorescence intensity | NWNRLSPSNQTEKQAAPHHHHCGAISLHPKAKIEE [PD-1 (Y)]
2 | – | High levels of fluorescence intensity | NWNRLSPSNQTEKQAACGAISLHPKAKIEESPGHHHH [PD-1(Lin)]
